Test results: patent US20250076311A1 (Chugai, published 2025)
Residue numbers refer to the chain shown, from its start. In names and notes the source's numbering stands. Each block holds one binder with its values, some of them ahead of it.

Tests used:
[1] = biological target: T1, cynomolgus monkey FcγRIIIaS extracellular domain with C-terminal His-tag (cynomolgus monkey, UniProt Q8SPW2 21-206 at identity 1.00)); assay: SPR, antibody captured, FcγR analyte
T1 construct: also called cyno FcgRIIIaS; cynoFcγRIIIaS
T1 chain: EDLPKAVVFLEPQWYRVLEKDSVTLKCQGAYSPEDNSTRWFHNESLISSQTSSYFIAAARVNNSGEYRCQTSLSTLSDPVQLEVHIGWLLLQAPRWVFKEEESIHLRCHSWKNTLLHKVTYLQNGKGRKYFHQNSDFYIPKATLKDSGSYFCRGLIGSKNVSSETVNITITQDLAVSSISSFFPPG
Protocol: (§1) The kinetic analysis of interactions between these antibodies and FcγR was carried out using BIACORE® T200 or BIACORE® 4000 (GE Healthcare). HBS-EP+ (GE Healthcare) was used as the running buffer, and the measurement temperature was set to 25° C. […] After the measurement, the antibody captured on the chip was washed off by allowing reaction with 10 mM glycine-HCl, pH1.5 and 25 mM NaOH so that the chip was regenerated and used repeatedly. The sensorgrams obtained as measurement results were analyzed by the 1:1 Langmuir binding model using the BIACORE® Evaluation Software to calculate the binding rate constant ka (L/mol/s) and dissociation rate constant kd (1/s), and the dissociation constant KD (mol/L) was calculated from these values. […] Regarding such interactions, KD values were calculated using the following 1:1 binding model described in BIACORE® T100 Software Handbook BR1006-48 Edition AE.

[2] = biological target: T2, cynomolgus monkey FcγRIIIaS extracellular domain, His-tagged (cynomolgus monkey, UniProt A3RFZ7 21-206 (rhesus entry)); assay: SPR (BIACORE), antibody captured on chip, FcγR as analyte, 25 C; KD of M103205H795-SG1 divided by KD of the variant
T2 construct: also called cyno FcγRIIIaS; cynoFcγRIIIaS; not shown: His-tag added to the C-terminus
Protocol: as §1

[3] = biological target: T3, human FcγRIIaH extracellular domain with C-terminal His-tag (human, UniProt P12318 34-217); assay: SPR, KD(parent SG1)/KD(variant)
T3 construct: also called human FcgRIIaH; FcγRIIa (type H)
T3 sequence: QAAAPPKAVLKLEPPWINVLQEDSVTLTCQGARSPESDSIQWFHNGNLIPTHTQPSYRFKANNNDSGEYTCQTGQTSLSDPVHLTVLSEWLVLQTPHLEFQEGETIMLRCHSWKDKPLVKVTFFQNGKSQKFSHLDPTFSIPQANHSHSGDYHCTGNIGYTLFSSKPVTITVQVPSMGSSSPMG

[4] = biological target: T4, human FcγRIIaR extracellular domain with C-terminal His-tag (human, UniProt P12318 34-217); assay: SPR, KD(parent SG1)/KD(variant)
T4 construct: also called human FcgRIIaR; FcγRIIa (type R)
T4 chain: T3 sequence with H134R

[5] = biological target: T1, cynomolgus monkey FcγRIIIaS …; assay: SPR, KD(parent SG1)/KD(variant)
[6] = biological target: T5, human FcγRIIb extracellular domain with C-terminal His-tag (human, UniProt P31994 43-217); assay: SPR, KD(parent SG1)/KD(variant)
T5 construct: also called human FcgRIIb
T5 sequence: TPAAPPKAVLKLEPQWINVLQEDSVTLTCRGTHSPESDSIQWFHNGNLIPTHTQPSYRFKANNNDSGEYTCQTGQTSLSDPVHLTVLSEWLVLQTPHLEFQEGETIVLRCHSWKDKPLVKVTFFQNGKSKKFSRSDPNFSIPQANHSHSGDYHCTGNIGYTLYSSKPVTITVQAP

[7] = biological target: T6, cynomolgus monkey FcγRIIa2 extracellular domain with C-terminal His-tag (cynomolgus monkey); assay: SPR (Biacore), antibody captured, FcgR as analyte
T6 construct: also called cyno FcgRIIa2; cynoFcγRIIa2
T6 chain: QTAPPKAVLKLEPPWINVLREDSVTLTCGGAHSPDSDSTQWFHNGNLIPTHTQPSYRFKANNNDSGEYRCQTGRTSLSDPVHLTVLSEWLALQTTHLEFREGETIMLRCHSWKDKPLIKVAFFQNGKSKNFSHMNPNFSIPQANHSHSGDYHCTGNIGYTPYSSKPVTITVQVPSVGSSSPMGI
Protocol: as §1

[8] = biological target: T7, human FcγRIIb extracellular domain with C-terminal His-tag (human, UniProt P31994 43-217); assay: SPR (Biacore), KD of SG1 divided by KD of variant
T7 construct: also called human FcgRIIb
T7 sequence: T5 sequence
Protocol: as §1

[9] = biological target: T8, human FcγRIIb extracellular domain, His-tagged (human, UniProt P31994 43-217); assay: SPR Biacore, KD(SG1)/KD(variant)
T8 construct: also called FcgRIIb (human); not shown: C-terminal His-tag
T8 sequence: T5 sequence
Protocol: as §1

[10] = biological target: T9, human FcγRIIaR extracellular domain, His-tagged (human, UniProt P12318 34-217); assay: SPR Biacore, KD(SG1)/KD(variant)
T9 construct: also called human FcγRIIa (type R); FcgRIIaR; not shown: C-terminal His-tag
T9 chain: T3 sequence with H134R
Protocol: as §1

[11] = biological target: T10, cynomolgus monkey FcγRIIb extracellular domain, His-tagged (cynomolgus monkey); assay: SPR (BIACORE), antibody captured, FcγR analyte, 25 C; KD of SG1 divided by KD of variant
T10 construct: also called cyno FcγRIIb; cynoFcgRIIb
T10 chain: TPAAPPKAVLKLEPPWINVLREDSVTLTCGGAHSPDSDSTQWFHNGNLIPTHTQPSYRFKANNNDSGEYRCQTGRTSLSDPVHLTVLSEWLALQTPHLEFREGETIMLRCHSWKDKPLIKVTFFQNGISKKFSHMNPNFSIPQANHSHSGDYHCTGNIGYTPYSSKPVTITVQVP
Protocol: as §1

[12] = biological target: T11, cynomolgus monkey FcγRIIIaS extracellular domain, His-tagged (cynomolgus monkey, UniProt Q8SPW2 21-206 at identity 1.00)); assay: as above
T11 construct: also called cyno FcγRIIIaS; cynoFcgRIIIaS
T11 chain: T1 chain
Protocol: as §1

Kd [1]: 3200 nM
B1: MS1032LO06-MY101 (antibody, human IgG1, kappa)
heavy: QVTLKESGPVLVKPTETLTLTCTVSGIDLSHDDISWVRQAPGKGLEWVGIISYAGSTYYASWAKGRLTISKDTSKNQVVLTMTNMDPVDTATYYCARGVPAYSHGGDLWGQGTLVTVSSASTKGPSVFPLAPSSKSTSGGTAALGCLVKDYFPEPVTVSWNSGALTSGVHTFPAVLQSSGLYSLSSVVTVPSSSLGTQTYICNVNHKPSNTKVDKKVEPKSCDKTHTCPPCPAPELLNGPSVFLFPPKPKDTLMISRTPEVTCVVVDVSEEDPEVKFNWYVDGVEVHNAKTKPREEQYNSTYRVVSVLTVLHQDWLNGKEYKCKVSNKALPKPIEKTISKAKGQPREPQVYTLPPSREEMTKNQVSLTCLVKGFYPSDIAVEWESNGQPENNYKTTPMVLDSDGSFFLYSKLTVDKSRWQQGNVFSCSVMHEALHNHYTQKSLSLSP
light: DIVMTQSPATLSLSPGERATLSCTSSQSVYHANWLSWFQQKPGQPPKLLIYWASTLAYGVPSRFSGSGSGTDFTLTISSLQPEDAATYYCAGGYGGGRYAFGQGTKVEIKRTVAAPSVFIFPPSDEQLKSGTASVVCLLNNFYPREAKVQWKVDNALQSGNSQESVTEQDSKDSTYSLSSTLTLSKADYEKHKVYACEVTHQGLSSPVTKSFNRGEC
notes: also called M103205H795-MY101; copies: 2 + 2

KD fold (SG1 = 1) [3]: 1.2 fold
KD fold (SG1 = 1) [4]: 1.1 fold
KD fold (SG1 = 1) [5]: 0.19 fold
KD fold (SG1 = 1) [6]: 10.7 fold
B3: MS1032LO19-SG1074 (antibody, name in EU numbering)
heavy: QVQLVESGGGLVQPGGSLRLSCAVSGIDLSHDDISWVRQAPGKGLEWVSIISYAGSTYYASWAKGRLTISKDTSKNQVVLTMTNMDPVDTATYYCARGVPAYSHGGDLWGQGTLVTVSSASTKGPSVFPLAPSSKSTSGGTAALGCLVKDYFPEPVTVSWNSGALTSGVHTFPAVLQSSGLYSLSSVVTVPSSSLGTQTYICNVNHKPSNTKVDKKVEPKSCDKTHTCPPCPAPELLNGPSVFLFPPKPKDTLMISRTPEVTCVVVDVSDEDPEVKFNWYVDGVEVHNAKTKPREELYNSTYRVVSVLTVLHRDWLNGKEYKCKVSNTALPKPIEKTISKAKGQRREPQVYTLPPSREEMTKNQVSLTCLVKGFYPSDIAVEWESNGQPENNYKTTPPVLDSDGSFFLYSKLTVDKSRWQQGNVFSCSVLHEALHAHTTRKELSLSP
light: B1 light with S25T, A32E
notes: tied to rows r15/r33 by row order only; also called MS103240H795-SG1074

KD fold (SG1 = 1) [3]: 1.5 fold
KD fold (SG1 = 1) [4]: 0.6 fold
KD fold (SG1 = 1) [5]: 0.05 fold
KD fold (SG1 = 1) [6]: 5.9 fold
B4: MS1032LO06-SG1029 (antibody, human IgG1, kappa)
heavy: B1 heavy with E270D, Q297L, Q313R, M398P, D415K, N436A
light: B1 light
notes: tied to rows r9/r27 by row order only; also called MS103205H795-SG1029; copies: 2 + 2

KD fold (SG1 = 1) [4]: 1.7 fold
KD fold (SG1 = 1) [5]: 0.05 fold
KD fold (SG1 = 1) [6]: 3.2 fold
B6: MS1032LO06-SG1031 (antibody, human IgG1, kappa, name in EU numbering)
heavy: B1 heavy with E270D, Q313R, M398P, D415K, N436A
light: B1 light
notes: tied to rows r10/r28 by row order only; also called MS103205H795-SG1031; copies: 2 + 2

KD fold (SG1 = 1) [4]: 0.1 fold
KD fold (SG1 = 1) [5]: 0.04 fold
B10: MS1032LO19-SG1079 (antibody)
heavy: B3 heavy with T328K, R345P, D415K, L430M, T438Y
light: B1 light with S25T, A32E
notes: tied to rows r17/r35 by row order only; also called MS103240H795-SG1079; copies: 2 + 2

KD fold (SG1 = 1) [3]: 1.8 fold
KD fold (SG1 = 1) [4]: 1.2 fold
KD fold (SG1 = 1) [5]: 0.17 fold
KD fold (SG1 = 1) [6]: 0.7 fold
B11: MS1032LO06-SG1016 (antibody, human IgG1, kappa)
heavy: B1 heavy with Q313R, D401K, N436A
light: B1 light
notes: tied to rows r8/r26 by row order only; also called MS103205H795-SG1016; copies: 2 + 2

More lines, now with the values behind:

B2: M103205H795-MY065/M103202L889-SK1 (antibody, human IgG1, kappa, name in EU numbering)
heavy: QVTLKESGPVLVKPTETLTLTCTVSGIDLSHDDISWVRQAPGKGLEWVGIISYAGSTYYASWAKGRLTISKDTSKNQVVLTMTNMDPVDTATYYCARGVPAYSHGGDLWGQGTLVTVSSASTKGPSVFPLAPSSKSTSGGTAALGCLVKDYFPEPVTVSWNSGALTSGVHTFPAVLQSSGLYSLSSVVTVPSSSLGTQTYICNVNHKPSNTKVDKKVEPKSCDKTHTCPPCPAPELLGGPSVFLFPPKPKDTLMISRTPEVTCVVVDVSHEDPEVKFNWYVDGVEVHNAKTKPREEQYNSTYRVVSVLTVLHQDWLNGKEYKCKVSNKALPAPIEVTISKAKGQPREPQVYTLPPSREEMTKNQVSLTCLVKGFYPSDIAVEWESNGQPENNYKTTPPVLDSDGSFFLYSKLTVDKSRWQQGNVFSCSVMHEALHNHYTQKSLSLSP
light: B1 light
KD fold (SG1 = 1) [2]: 3.27 fold

B5: M103205H795-MY015/M103202L889-SK1 (antibody, human IgG1, kappa, name in EU numbering)
heavy: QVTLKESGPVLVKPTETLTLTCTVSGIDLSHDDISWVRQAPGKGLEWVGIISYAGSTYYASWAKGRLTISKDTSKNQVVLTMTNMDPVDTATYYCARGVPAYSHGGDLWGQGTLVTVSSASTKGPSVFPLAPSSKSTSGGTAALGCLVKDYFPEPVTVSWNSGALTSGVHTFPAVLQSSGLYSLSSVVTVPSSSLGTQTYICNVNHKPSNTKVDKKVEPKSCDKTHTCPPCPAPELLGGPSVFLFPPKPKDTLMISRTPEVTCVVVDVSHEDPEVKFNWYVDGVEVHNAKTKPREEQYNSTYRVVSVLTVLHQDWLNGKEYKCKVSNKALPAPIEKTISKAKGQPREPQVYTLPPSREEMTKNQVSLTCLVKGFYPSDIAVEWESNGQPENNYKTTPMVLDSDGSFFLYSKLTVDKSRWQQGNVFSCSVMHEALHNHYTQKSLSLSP
light: B1 light
KD fold (SG1 = 1) [2]: 3.6 fold

B7: M103205H795-MY524 / M103202L889-SK1 (antibody, human IgG1, kappa, name in EU numbering)
heavy: B1 heavy with A233G, N238T, E270D, Q297L, M398P
light: B1 light
Kd [7]: 1100 nM
KD fold (SG1 = 1) [8]: 4.6 fold

B8: M103205H795-MY516 / M103202L889-SK1 (antibody)
heavy: B1 heavy with N238T, S241V, E270D, Q297L, S300L, M398P
light: B1 light
notes: 'Q235L' copied as printed, probably Q295L
Kd [7]: 1300 nM

B9: M103205H795-MY389 / M103202L889-SK1 (antibody, human IgG1, kappa, name in EU numbering)
heavy: B1 heavy with N238T, S241L, E270D, M398P
light: B1 light
Kd [7]: 1600 nM

B12: M103205H795-MY012/M103202L889-SK1 (antibody, human IgG1, kappa, name in EU numbering)
heavy: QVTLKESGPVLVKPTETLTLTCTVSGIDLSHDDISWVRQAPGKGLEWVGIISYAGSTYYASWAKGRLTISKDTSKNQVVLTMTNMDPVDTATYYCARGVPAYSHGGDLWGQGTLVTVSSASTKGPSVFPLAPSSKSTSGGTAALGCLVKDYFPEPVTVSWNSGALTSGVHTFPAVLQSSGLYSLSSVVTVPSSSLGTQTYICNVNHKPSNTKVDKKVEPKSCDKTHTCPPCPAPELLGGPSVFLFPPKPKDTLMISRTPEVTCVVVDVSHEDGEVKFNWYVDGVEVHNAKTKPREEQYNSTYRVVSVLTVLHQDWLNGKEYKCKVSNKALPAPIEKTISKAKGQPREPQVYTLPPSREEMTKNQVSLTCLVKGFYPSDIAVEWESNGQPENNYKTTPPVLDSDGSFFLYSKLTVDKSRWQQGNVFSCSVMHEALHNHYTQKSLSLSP
light: B1 light
notes: Substitution introduced into M103205H795-SG1; EU numbering
KD fold (SG1 = 1) [9]: 5.1 fold
KD fold (SG1 = 1) [10]: 4 fold

B13: M103205H795-MY448/M103202L889-SK1 (antibody, human IgG1, kappa, name in EU numbering)
heavy: B1 heavy with P234K, N238T, E270D, M398P
light: B1 light
KD fold (SG1 = 1) [11]: 0.8 fold
KD fold (SG1 = 1) [12]: 0.2 fold
